Source: the DeepSol protein solubility set

Test: soluble on expression in E. coli; label from the status in PepcDB or PDB records

| Sequence | soluble on expression in E. coli |
| --- | --- |
| MIQGVIQKIAGPAVIAKGMLGARMYDICKVGEEGLVGEIIRLDGDTAFVQVYEDTSGLKVGEPVVSTGLPLAVELGPGMLNGIYDGIQRPLERIREKTGIYITRGVVVHALDREKKWAWTPMVKPGDEVRGGMVLGTVPEFGFTHKILVPPDVRGRVKEVKPAGEYTVEKPVVVLEDGTNLKMYHTWPVRRPRPVQRKLDPNTPFLTGMRILDVLFPVAMGGTAAIPGPFGSGKTVTQQSLAKWSNADVVVYVACGDRGNEMTDVLVEFPELTDPKTGGPLMRRTVLIANTSNMPVAAREASIYVGVTIAEYFRDQGFSVALMADSTSRWAEALREISSRLEEMPAEEGYPPYLAARLAAFYERAGKVITLGGEEGAVTIVGAVSPPGGDMSEPVTQSTLRIVGAFWRLDASLAFRRHFPAINWNGSYSLFTSALDPWYRENVAEDYPELRDAISELLQREAGLQEIVQLVGPDALQDAERLVIEVGRIIREDFLQQNAYHEVDAYCSMKKAYGIMKMILAFYKEAEAAIKRGVSIDEILQLPVLERIGRARYVSEEEFPAYFEEAMKEIQGAFKALA | soluble |
| MIQQAQFNVQMAEEDRWLTQYPNMEMIVNNKGPKPIFPELNFNITGLEEKSRYVVLLSIQKFDNIRYGFKNGKWGPSKVRHATKKEQEIKYFLHPDGTKLGEELMKETIKFDTVRITNHKKFMDKDNVFFVETMHKYVPVLTVKNITNVESANHSMRMEVAQFFPVTVYNQESIGNWKSKFHKNATFENRLDGGNKRKNTNSREEPSSKRSKNETEIAVLDILQVASQSENYNESTNSGRLQNEISSSIHQFPSTSYQNQYPHAYPTVNTPPIYAQQFPAPFDEKQNQFYPKTDENLAPNCAQDASSLPNFAMNQKASFANQYPYHPYYHQYSQLDHGSPYQYMNNSINSDSSFQSSFSTENSYFDDNGNPIHYPYYPYK | not soluble |
| MIRIAYVSTYPPRRCGLATFTEHLRQSIDGVRGPSDGDRVIVLYNESDGDDAYRNDPAYWPLPAQNRAAYAEMAKRVNESDIDVVLLQHEFGIFGGEAGEYILDFIAALNKPLVTTFHTVFADPPLPYRPIQGKIAAASDAIIVMNRQAIPYLVKAFGLPEEKIVYIPHGAPGPSSENRDSLRRRLGFSGRKVMLTFGLLSRGKGIESVLAALPGVVRKVPEALYVIAGQTHPEVKKREGEAYREELKSLIHRLGLEHHVHMEDRYFSEEELIDYLTACDLYVTPYPGMQQITSGTLAYAVGVGRPVVSTPYEHARDLLRGCEELLLPYGDTTAWEERLGQLLADEAALKRWEEKVRQIGANTHWPRVGEQHVALFARMCAAKRGEVKTIGTVSH | not soluble |
| MIRIENLTKKFDRKVLDNITISLPKNRVSVIVGINGSGKTTLLDCIVGLKDATSGKVFIESYSNDSEKFKECIFYIPSEFYLPNYMTGKEYLNFVLSRYRCSDIERIDDFLELFDLKFAGTNLIESYSFGMKKKIQIVAAALANTDYILGDEIFNGLDFETTLLTLELFENLSREVGIVIISHNKLIIERFSENILLMSNGNLTPFLGASENLEKEVISTEKIHEKIKYIKGYHPINRVIY | not soluble |
| MIRLAPLITADVDTTTLPGGKASDAAQDFLTLLSEALAGETTTDKAAPQLLVATDKPTTKGEPLVSDILADAQQADLLIPVDETLPVINDEQSTSTPLTTAQTMTLAAVADKNTTKDEKADDLNEDVTASLSALFAMLPGFDNTPKVTDAPSTVLPAEKPTLFTKLTSAQLTTAQPDDAPGTPAQPLTPLVAEAQSKAEVISTPSPVTADASPLITPHQTQPLPTVAAPVLSAPLGSHEWQQSLSQHISLFTRQGQQSAELRLHPQDLGEVQISLKVDDNQAQIQMISPHQHVRAALEAALPVLRTQLAESGIQLGQSNISGESFSGQQQAASQQQQSQRTANHEPLAGEDDDTLPVPVSLQGRVTGNSGVDIFA | not soluble |
| MIRSMTGFGRGRAQADGREFLVEIKTVNHRYCDIYIKLPRQISFLEDKVREVIGKSISRGKVDVFINYEDFSEDSKNILIDEGLAKTYIKSVEYLRDKYGLKDDISVSLIAKFPDILKVEKPEEDEEKIWNLLYEALSHALDSLISMRETEGEGLKNDLLERTDAIEKVVQEISIRAPEVVKEYKCKLENRIKEILEQQVIDENRLAMEVAIFADRCNIDEELVRLESHINQLRQTLNSDSDTPVGRKLDFLIQEMNREINTIGSKANDLSITQNVVEIKSELEKIREQIQNIE | soluble |
| MISAKEQAKKGQIIYRYILLKIQSFKWPAGTRIFSERQLEIRFASSRSLIRTILNTLLGKDLIRHTKGNAGYFVAKNAGFSFFHKTQDNKLPKWAKLSTLMKNHLREVDRDVFSSIDSGVDFGNFKGLEAKLFDENKKNFLNLSFFGKDDVLQIFSEQNLQEQFFKDFAYNGIVVERKSSLICVDDETKNLLIYDLFYDDNNKFIVAMRSEYLNPRIKIINA | soluble |
| MISIIIPAFNEERRIGRTLEKISSTLPNAEIVVVFDGHDNTPEVVKKFPVKLLISESRLGKGGAIKRGINESNFQRVLLLDADFPITEEELDKILSTDADLVIPKRKIVGMPLKRKFLHKGFIIITKILFPSLAKFSDFQAGVKLVNREKVLDILDELIINDFLFDVNLIYGFKRRHYKVKEVEINYIHDESDSKISKKLIKVIILMFLSLIKLRVYYSPFRKILYTKTYLKAQDYILRKLRLEHHHHHH | not soluble |
| MISIIYLFIPILLASAVPTSDVLSTRIKALEQVFIVFYCKPSCRFNETQLNSVTIKSFPKCKEVCGIIFIDSETDLTVEQMKKAFEKMRTLKGGFNIENTSLTSLSVFTADKEKGNFNVVGVGNSAAAMTSTKLLAERLKQKNGVYIRNNSQLNDPSVLYDLYLYRDRGIEACDIRIENNPKLEFSCDGGFLHMYNELIVRGNLKDCGCDGEKVNVSNVKEYSKCKTLDSGLNLVNINATFDYDSFLNVTMIRGSIAIRNTNLQSLSFLQNLQTIEYNSDIASVALNVQDNPEMIRLGLPILTKVIDTVEQTSMIQYSTYNKRQYFNFENLHPDFCVTITEIVALLNLGISTENIEAKLCKDPGPLDASFYCTFESMSKLSDTCMYILGDLLIDHEDEKYVSKLGVLQFLFGTLTIRNTNLTDLNFLDQMTYIGALNGNVTYFPVIQIYSNPNLRNVGLNGIMNIITKGNRTAIIQDNHPDLFKSTPCQLFGAYFSNPAMENRVNLTYIGSNCGERVHITSSQSGRISIGLSFSLFVLFWSFKSN | not soluble |
| MISNDAIRRNMAVFSMSVVSKLTDLTPRQIRYYETHELIKPERTEGQKRLFSLNDLERLLEIKSLLEKGFNIKGIKQIIYDSQEHLTTDEQEIRKKMIVDATQKPIGETLPINRGDLSRFIK | not soluble |
| MISNFKSISLTYRKAPLEIRERVALNEAECKSLMLRIKDFTDTAELLILSTCNRTEIYYTSNEDYSNDIIKLLGVEKNITGLIQQKEYFEIYNEQADAVLHLFEVGIGLDSQVVGDMQIVNQVKYAYQWSADLNLAGPFLHRLMHTIFFTNKRVVQETAFRDGAASVSYATVELSEELLSATPNANILIVGLGEIGADVCRNFKANTSFKNITLTNRSPLKSEALAAECGIEHVPFETLWEAVAKADLVISSVAKEEPLFTKEEIQKLSILSHKYFIDLSVPRSVDARAEELPGIIVYDIDHIQNRSNEALENRLNAIPHVRKIILDSIVEFNEWSKEMEVSPTINKLKNALEQIRKEELSRFVKQLSDEEAKKVDEITKSIMQKIIKLPVLQLKAACKRGEAETLIDVLNDLFNLDKQPEQIRD | not soluble |
| MISPNHLILLFCVNCAFLVASDATPKRSPLGTMRFGKRAIADEMTFEEDGYYPSNVMWKRSTVDSSEPVIRDQRTPLGTMRFGKRSAEPFGTMRFGKRNPENDTPFGTMRFGKRASEDALFGTMRFGKREDGNAPFGTMKFGKREAEEPLGTMRFGKRSADDSAPFGTMRFGKRNPLGTMRFGK | not soluble |
| MITLEQKLEQYKHTYVQLKGELKWKTSDSRTGMMIAAMYAGSDKLFDLGRFLEISSYIKNQVGMFSYLKSYHRFVVAATLDIHFTDYKEAFRKFLDLYEQLVTGGFSRSIFTYLAAAVLLTEENEQHGAHIQRSMQVYKRMKKDHLFLTSTNDYPLAVLLAGQSEHVETLMDRVERLYQKLATAGLRKGNDLQFLSHILSLKKDVREELLVAKCTNIWNLLKQEKVKVKQMHYPAIGLLALLEDGEKEIHSIRAFIEKLQGDKLFRWHTDTNILIAIQLFVSQKGEESKATNTGLQTMIEVLIQAQQAAMMATIAASSAATSSASSSS | not soluble |
| MITLREFKEENTAQLTHILNEPEVVKYLSSKIPKPDTLQDAQWWISTGSKFGIVKAIECNGSLIGCIGADRGEFEYQRSAEIGYWIAKDYWRQGVATQAISELIPLIFTTTDIVRLFASVFSENTASMRVLDKCGLKLEAIHKKAIYKDGKFYDNHIFSILKT | not soluble |
